Assay results taken from publication PMC8784325, “The ubiquitin-binding domain of DNA polymerase η directly binds to DNA clamp PCNA and regulates translesion DNA synthesis” (The Journal of Biological Chemistry, 2021).

Assays:
[1] = tested on: rad30Δ S. cerevisiae strain; assay: UV sensitivity complementation (spot assay), rad30Δ strain; assay type: cell-based, Saccharomyces cerevisiae; conditions: ADH1 promoter, UV 16–32 J/m^2, 30 °C, 3 days
Description: Figure 1 Identification of PCNA interaction region in CaPolη.A, amino acid alignment between Ca- and Sc-Polη was carried out by EMBOSS Needle; identical amino acids are marked by ∗ and similar amino acids were marked by: symbols. All the important motifs and domains are underlined, including Motif I to V, PAD, ubz and pip. Putative pip sequences were labeled as Seq-1 through Seq-4 in the C-terminal domain. […] C, putative pip sequences of CaPolη were compared with the already identified pip motifs of other Y-family pols. D, line diagram showing various domains of Polηs and a C-terminal deletant CaPolη (1–512). E, determination of binding kinetics of wild type or truncated CaPolƞ (1–512) with CaPCNA by ITC. […] F, UV sensitivities of S. cerevisiae strains. Cells of genomic rad30Δ and rad30Δrev3Δ deletion S. cerevisiae strains harboring YEP-ADH1p or YEP-ADH1p-ScPolη or YEP-ADH1p-CaPolη or YEP-ADH1p-CaPolη (1–512) or YEP-ADH1p-CaPolη F485A,L486A plasmids from an overnight SD-Ura culture were serially diluted and spotted onto SD-Ura plates. […]
Figure 2 Ubz domain of CaPolη is essential TLS activity.A, a line diagram showing the deletion and site-directed mutations in the ubz domain of CaPolη. […] Following UV irradiation, plates were incubated in the dark, and colonies were counted after 3 to 5 days. […]

[2] = tested on: rad30Δ S. cerevisiae strain; conditions: S. cerevisiae strains; cited from earlier work

B1: ScPolη F627A,F628A (protein, UniProt Q04049 1-632, looked up, variant F627A F628A)
DNA polymerase eta: MSKFTWKELIQLGSPSKAYESSLACIAHIDMNAFFAQVEQMRCGLSKEDPVVCVQWNSIIAVSYAARKYGISRMDTIQEALKKCSNLIPIHTAVFKKGEDFWQYHDGCGSWVQDPAKQISVEDHKVSLEPYRRESRKALKIFKSACDLVERASIDEVFLDLGRICFNMLMFDNEYELTGDLKLKDALSNIREAFIGGNYDINSHLPLIPEKIKSLKFEGDVFNPEGRDLITDWDDVILALGSQVCKGIRDSIKDILGYTTSCGLSSTKNVCKLASNYKKPDAQTIVKNDCLLDFLDCGKFEITSFWTLGGVLGKELIDVLDLPHENSIKHIRETWPDNAGQLKEFLDAKVKQSDYDRSTSNIDPLKTADLAEKLFKLSRGRYGLPLSSRPVVKSMMSNKNLRGKSCNSIVDCISWLEVFCAELTSRIQDLEQEYNKIVIPRTVSISLKTKSYEVYRKSGPVAYKGINFQSHELLKVGIKFVTDLDIKGKNKSYYPLTKLSMTITNFDIIDLQKTVVDMFGNQVHTFKSSAGKEDEEKTTSSKADEKTPKLECCKYQVTFTDQKALQEHADYHLALKLSEGLNGAEESSKNLSFGEKRLLFSRKRPNSQHTATPQKKQVTSSKNILSAATRKK
UV sensitivity / complementation (in words) [1]: abrogated its TLS function and displayed equal UV sensitivity with rad30Δ strain
UV sensitivity and UV-induced mutagenesis (in words) [2]: enhanced UV sensitivity and UV-induced mutagenesis
